The text below walks through data of article PMC3646996 (Journal of molecular biology, 2013).

By Kd is commonly meant the constant that tells how readily two partners part at equilibrium. The term stoichiometry N denotes the number of molecules, sites or subunits per partner or assembly.

Read-outs that look alike come from different tables or passages of the source.

Data set [1] deals with PhoB (Escherichia coli) (UniProt P0AFJ5). The following applies: cited from earlier work.
For data set [2] the target is unchanged. As to conditions: cited from earlier work. This is another data set of the same source.
Data set [3] deals with the molecule itself. Briefly: AUC.
Data set [4] deals with the molecule itself. Description: AUC. The source holds these as a separate data set.
The target of another data set is T1, OmpR (Escherichia coli, UniProt P0AA16 1-239).
T1 sequence: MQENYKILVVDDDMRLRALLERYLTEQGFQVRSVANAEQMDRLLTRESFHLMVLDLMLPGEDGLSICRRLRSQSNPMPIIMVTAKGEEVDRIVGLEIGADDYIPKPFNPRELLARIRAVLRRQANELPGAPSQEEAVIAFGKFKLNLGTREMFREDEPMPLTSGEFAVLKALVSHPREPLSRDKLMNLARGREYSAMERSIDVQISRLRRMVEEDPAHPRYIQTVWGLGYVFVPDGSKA
Briefly: ITC. Background: In ITC the heat of successive injections is recorded.

Sequence of PhoB (Escherichia coli) (P0AFJ5 whole entry): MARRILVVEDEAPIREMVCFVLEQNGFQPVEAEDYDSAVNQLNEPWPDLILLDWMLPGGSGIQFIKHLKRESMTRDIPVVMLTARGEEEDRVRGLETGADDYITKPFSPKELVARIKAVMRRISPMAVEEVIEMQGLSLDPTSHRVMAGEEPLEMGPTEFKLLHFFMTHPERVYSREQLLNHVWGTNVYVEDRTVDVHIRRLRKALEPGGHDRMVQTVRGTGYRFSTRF

As for PhoB (from UniProt P0AFJ5), the Kd was 5.1 µM with PhoB (Escherichia coli) [1] and 380 µM in the data set with PhoB (Escherichia coli) [2].

B1: OmpR (unphosphorylated, untreated) (natural protein, Escherichia coli, UniProt P0AA16 1-239, looked up)
chain: MQENYKILVVDDDMRLRALLERYLTEQGFQVRSVANAEQMDRLLTRESFHLMVLDLMLPGEDGLSICRRLRSQSNPMPIIMVTAKGEEVDRIVGLEIGADDYIPKPFNPRELLARIRAVLRRQANELPGAPSQEEAVIAFGKFKLNLGTREMFREDEPMPLTSGEFAVLKALVSHPREPLSRDKLMNLARGREYSAMERSIDVQISRLRRMVEEDPAHPRYIQTVWGLGYVFVPDGSKA
B1: in the data set “AUC [3]”, the Kd was 1100 µM and the “stoichiometry N” value is 2.

B2: BeF3−-treated OmpR (natural protein, Escherichia coli, UniProt P0AA16 1-239, looked up)
chain: MQENYKILVVDDDMRLRALLERYLTEQGFQVRSVANAEQMDRLLTRESFHLMVLDLMLPGEDGLSICRRLRSQSNPMPIIMVTAKGEEVDRIVGLEIGADDYIPKPFNPRELLARIRAVLRRQANELPGAPSQEEAVIAFGKFKLNLGTREMFREDEPMPLTSGEFAVLKALVSHPREPLSRDKLMNLARGREYSAMERSIDVQISRLRRMVEEDPAHPRYIQTVWGLGYVFVPDGSKA
modifications: BeF3− (noncovalent small molecule phosphoryl analog); residue not given
For B2, in “AUC [4]”, binding was put at a Kd of 7 µM and the “stoichiometry N” value worked out at 2.

B3: F1 (dsDNA)
DNA 1: GCTTTACTTTTGGTTACATATTTCG
DNA 2: CGAAATATGTAACCAAAAGTAAAGC
In the data set with OmpR, B3 had a Kd of 2 µM.
